Data published in patent US20140336202.

Molecular target: recombinant PP5 (UniProt P53041)
Sequence (P53041 whole entry): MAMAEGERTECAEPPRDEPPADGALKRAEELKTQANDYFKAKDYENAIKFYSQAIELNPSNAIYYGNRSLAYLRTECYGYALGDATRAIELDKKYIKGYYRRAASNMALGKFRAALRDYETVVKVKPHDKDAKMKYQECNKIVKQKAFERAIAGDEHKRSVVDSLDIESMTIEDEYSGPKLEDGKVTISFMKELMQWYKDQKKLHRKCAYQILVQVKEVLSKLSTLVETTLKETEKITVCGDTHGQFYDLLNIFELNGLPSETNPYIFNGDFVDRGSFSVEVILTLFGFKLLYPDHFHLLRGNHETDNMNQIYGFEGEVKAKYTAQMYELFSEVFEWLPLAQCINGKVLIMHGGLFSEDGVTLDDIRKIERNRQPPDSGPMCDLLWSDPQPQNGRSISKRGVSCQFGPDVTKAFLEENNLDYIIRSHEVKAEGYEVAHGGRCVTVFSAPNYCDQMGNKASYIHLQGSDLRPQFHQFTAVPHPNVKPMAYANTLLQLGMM

Substance | in vitro ubiquitylation of PP5 (immunoblot for PP5)
recombinant Huwe1 C4341S mutant (Huwe1 C/S) | wild type recombinant Huwe1 protein, but not Huwe1(C/S), ubiquitylated recombinant PP5 in vitro
recombinant Huwe1 wild type | in the presence of both E1 and E2, wild type recombinant Huwe1 protein, but not Huwe1(C/S), ubiquitylated recombinant PP5 in vitro
